Data on three molecules can be found in patent publication US20180185467A1 (Harvard, published 2018).

One data set deals with endogenous 14-3-3ε (UniProt P62258).
Data set [1] deals with T1, GST-NS3 of HCV (strain Con1) (Hepatitis C virus, strain Con1, UniProt Q9WMX2 1027-1657).
T1 construct: domain: NS3; also called HCV NS3; NS3 of Hepatitis C virus
Description: GST pull-down in 293T cells, immunoblot with anti-14-3-3ε. A general note: A western blot detects proteins with antibodies after separation by electrophoresis.

Data set [2] deals with T2, FLAG-NS5-MTase (NS5 methyltransferase domain, aa 1-319) (dengue virus serotype 2, strain NGC, UniProt P14340 2492-2810).
T2 construct: domain: NS5 methyltransferase (aa 1-319); also called pEF-BOS-FLAG-NS5-MTase; not shown: FLAG tag
Description: FLAG affinity purification from HEK293T cells and mass spectrometry.

The target in a further data set is T3, endogenous RIG-I (human, UniProt O95786 1-925).
T3 construct: also called retinoic acid-inducible gene-I
T3 sequence: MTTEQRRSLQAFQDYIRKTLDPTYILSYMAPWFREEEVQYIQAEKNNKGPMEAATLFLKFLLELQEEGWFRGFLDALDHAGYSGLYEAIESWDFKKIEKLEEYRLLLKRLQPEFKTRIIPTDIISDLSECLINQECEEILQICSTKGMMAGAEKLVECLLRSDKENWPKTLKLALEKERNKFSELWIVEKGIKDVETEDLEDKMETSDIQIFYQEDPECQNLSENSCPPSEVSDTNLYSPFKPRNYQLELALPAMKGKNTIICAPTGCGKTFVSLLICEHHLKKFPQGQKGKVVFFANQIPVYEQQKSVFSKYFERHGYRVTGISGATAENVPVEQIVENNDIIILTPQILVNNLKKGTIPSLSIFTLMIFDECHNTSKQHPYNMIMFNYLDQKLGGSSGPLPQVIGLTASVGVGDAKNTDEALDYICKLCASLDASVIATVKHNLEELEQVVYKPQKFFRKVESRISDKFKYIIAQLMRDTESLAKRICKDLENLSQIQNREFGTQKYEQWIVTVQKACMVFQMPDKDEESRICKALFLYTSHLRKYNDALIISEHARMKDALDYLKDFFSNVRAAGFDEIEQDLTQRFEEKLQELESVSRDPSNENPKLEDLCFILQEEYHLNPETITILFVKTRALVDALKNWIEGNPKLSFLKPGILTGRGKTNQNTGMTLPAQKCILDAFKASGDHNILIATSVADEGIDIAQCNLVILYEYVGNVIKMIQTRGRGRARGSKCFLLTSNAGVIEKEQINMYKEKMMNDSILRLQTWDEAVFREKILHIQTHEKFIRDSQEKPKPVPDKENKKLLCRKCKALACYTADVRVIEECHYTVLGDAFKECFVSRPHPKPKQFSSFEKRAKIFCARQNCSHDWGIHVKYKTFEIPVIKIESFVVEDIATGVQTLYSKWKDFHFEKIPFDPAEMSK
Description: Co-IP with anti-RIG-I from SeV-infected cells, immunoblot with anti-14-3-3ε.

Another data set addresses T4, RIG-I-FLAG (UniProt O95786 1-925).
T4 construct: also called purified RIG-I-FLAG
T4 sequence: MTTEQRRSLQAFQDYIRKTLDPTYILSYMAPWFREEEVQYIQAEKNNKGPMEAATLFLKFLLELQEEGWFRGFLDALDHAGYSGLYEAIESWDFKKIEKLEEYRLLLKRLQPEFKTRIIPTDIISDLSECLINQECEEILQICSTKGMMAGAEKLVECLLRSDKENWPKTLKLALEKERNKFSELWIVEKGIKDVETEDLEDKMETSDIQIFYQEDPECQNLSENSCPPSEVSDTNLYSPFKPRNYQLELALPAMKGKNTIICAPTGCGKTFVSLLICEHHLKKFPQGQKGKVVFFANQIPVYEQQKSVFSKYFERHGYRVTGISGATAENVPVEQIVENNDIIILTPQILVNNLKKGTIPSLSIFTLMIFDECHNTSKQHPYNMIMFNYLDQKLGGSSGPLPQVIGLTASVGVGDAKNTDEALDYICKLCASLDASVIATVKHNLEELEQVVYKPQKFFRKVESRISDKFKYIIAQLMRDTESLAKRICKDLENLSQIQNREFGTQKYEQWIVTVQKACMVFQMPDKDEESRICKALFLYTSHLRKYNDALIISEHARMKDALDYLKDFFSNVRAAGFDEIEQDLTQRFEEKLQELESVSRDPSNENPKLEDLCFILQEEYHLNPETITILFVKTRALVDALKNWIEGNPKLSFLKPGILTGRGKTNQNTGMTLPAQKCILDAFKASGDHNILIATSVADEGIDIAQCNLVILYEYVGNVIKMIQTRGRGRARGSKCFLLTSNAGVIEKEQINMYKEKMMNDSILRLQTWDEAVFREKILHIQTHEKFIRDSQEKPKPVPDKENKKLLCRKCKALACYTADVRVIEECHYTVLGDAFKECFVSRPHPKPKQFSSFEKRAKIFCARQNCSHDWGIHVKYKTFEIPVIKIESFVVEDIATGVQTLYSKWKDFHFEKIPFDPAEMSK
Description: in vitro binding assay on anti-FLAG beads, immunoblot.

T1 sequence (Q9WMX2 1027-1657): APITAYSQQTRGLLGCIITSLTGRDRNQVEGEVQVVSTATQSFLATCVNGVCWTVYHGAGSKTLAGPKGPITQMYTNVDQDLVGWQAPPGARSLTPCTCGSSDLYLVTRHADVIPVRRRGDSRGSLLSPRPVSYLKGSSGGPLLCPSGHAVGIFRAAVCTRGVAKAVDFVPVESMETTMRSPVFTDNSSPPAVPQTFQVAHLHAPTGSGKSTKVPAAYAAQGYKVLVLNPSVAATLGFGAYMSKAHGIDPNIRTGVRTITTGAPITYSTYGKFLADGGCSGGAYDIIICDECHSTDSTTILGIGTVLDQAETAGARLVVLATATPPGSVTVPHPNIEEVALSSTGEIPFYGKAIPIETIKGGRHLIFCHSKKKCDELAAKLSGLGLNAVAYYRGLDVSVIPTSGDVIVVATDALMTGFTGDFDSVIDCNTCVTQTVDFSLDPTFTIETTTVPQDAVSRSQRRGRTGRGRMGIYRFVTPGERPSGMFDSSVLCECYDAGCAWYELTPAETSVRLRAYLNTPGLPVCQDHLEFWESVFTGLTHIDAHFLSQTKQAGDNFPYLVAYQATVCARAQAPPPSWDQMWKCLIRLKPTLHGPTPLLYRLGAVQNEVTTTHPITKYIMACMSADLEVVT

Consider NS3 of DV2 NGC in infected Huh7 cells, for which the “translocation of RIG-I to the MAVS-containing mitochondrial fraction (fractionation, immunoblot)” value with endogenous 14-3-3ε is “RIG-I failed to translocate to the MAVS-containing mitochondrial fraction during DV infection”.

B1: endogenous 14-3-3ε (other)
chain: MDDREDLVYQAKLAEQAERYDEMVESMKKVAGMDVELTVEERNLLSVAYKNVIGARRASWRIISSIEQKEENKGGEDKLKMIREYRQMVETELKLICCDILDVLDKHLIPAANTGESKVFYYKMKGDYHRYLAEFATGNDRKEAAENSLVAYKAASDIAMTELPPTHPIRLGLALNFSVFYYEILNSPDRACRLAKAAFDDAIAELDTLSEESYKDSTLIMQLLRDNLTLWTSDMQGDGEEQNKEALQDVEDENQ
Turning to B1, the binding result in data set [1] is “no binding”; in data set [2], “no binding”; with endogenous RIG-I it was “binds”.

B2: bacterially-purified recombinant human 14-3-3ε protein (NP_006752.1) (other)
chain: MDDREDLVYQAKLAEQAERYDEMVESMKKVAGMDVELTVEERNLLSVAYKNVIGARRASWRIISSIEQKEENKGGEDKLKMIREYRQMVETELKLICCDILDVLDKHLIPAANTGESKVFYYKMKGDYHRYLAEFATGNDRKEAAENSLVAYKAASDIAMTELPPTHPIRLGLALNFSVFYYEILNSPDRACRLAKAAFDDAIAELDTLSEESYKDSTLIMQLLRDNLTLWTSDMQGDGEEQNKEALQDVEDENQ
notes: also called recombinant (r) 14-3-3ε; r14-3-3ε
For the molecule B2, in the data set with RIG-I-FLAG, the binding result is given as “binds”.
